Test system: Bacillus subtilis
Assay: cleaved RNA product abundance (RNA/gDNA barcode ratio) relative to median wild-type variant (ratio to wild type); higher = more accumulation of the downstream cleavage product
Method: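 MPRA in B. subtilis. Mutagenized RNase Y cleavage-site regions (9% mutation rate) were inserted into a barcoded reporter mRNA (truncated aprE or tetM). Cells were grown in LB at 37°C to OD600 0.3. The cleaved RNA isoform was gel-purified and its barcodes counted; the RNA:gDNA barcode ratio was normalised to the median wild-type variant, and the median over barcodes is reported per variant. The printed sequence is the variable window only; the reporter flanks are not printed.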

[1] = experiment (reporter, strain, medium): exp 2b: truncated aprE reporter, strain BJT200, cleavage site: cggR-gapA (positions -7 to +36 mutated)
[2] = experiment (reporter, strain, medium): exp 4a: truncated aprE reporter, strain BJT201 with 2% xylose (RNase J1 expressed), cleavage site: cggR-gapA (positions -7 to +36 mutated)
[3] = experiment (reporter, strain, medium): exp 8a: truncated aprE reporter, strain BJT201 with 2% xylose (RNase J1 expressed), cleavage site: glnRA (positions -5 to +31 mutated)
[4] = experiment (reporter, strain, medium): exp 6: tetM reporter, strain 168, cleavage site: cggR-gapA (positions -7 to +36 mutated)

ACAGACGAAGGAGCCGCAAAGAAGTTATTAAACGATGAATAATCCCTCAATATAAATATCTCTCACTTATTTAAA
cleaved RNA product abundance [1]: 0.0904 | cleaved RNA product abundance [2]: 0.109

CGACATGTCCCGCTTCTTTCATTACTCCGTTAGCAACTGTTTTGCAATATACATTTACCTTTTAAGAGGAGGAAT
cleaved RNA product abundance [3]: 0.515

ACAGACGAAGGAGCCGCAAAGAAGTTATTAAGGGATGAATATTCCCTCACTATAAATATCTCTCACTTATTTAAA
cleaved RNA product abundance [1]: 0.121

CGACATGTCCCGCTTCTTTCATTAATCCGTTAGCAACTGTTTTGCTATAAAAATTTACCTTTTAAGAGGAGGAAT
cleaved RNA product abundance [3]: 0.405

ACAGACGAAGGAGCCGCAAAGAAGTTATTAAGAGATGAATAATCCCTCAATATAAATAGCTCTCACTTATTTAAA
cleaved RNA product abundance [2]: 0.106

ACAGACGAAGGAGCCGCAAAGAAGTTATTAAGGGATCAATAATCTCTCAATATAAATATCTCTCACTTATTTAAA
cleaved RNA product abundance [1]: 0.312 | cleaved RNA product abundance [2]: 0.342

ACAGACGAAGGAGCCGCAAAGAAATTATTAAGGGATGAATAATCCGTCAATATAAATATCTCTCACTTATTTAAA
cleaved RNA product abundance [1]: 0.192 | cleaved RNA product abundance [2]: 0.261

CGACATGTCCCGCTTCTTTCATTAATCCGTTAACAACTGTTTTGCTATATACATTTCCCTTTTAAGAGGAGGAAT
cleaved RNA product abundance [3]: 0.155

CGACATGTCCCGCTTCTTTCATTAATCCGTTAGCCACTGTTTTGCTATATACATTTACTTTTTAAGAGGAGGAAT
cleaved RNA product abundance [3]: 0.98

CGACATGTCCCGCTTCTTTCATTAATCCGTTAGCAACTGGTTTGATATATACATTTACCTTTTAAGAGGAGGAAT
cleaved RNA product abundance [3]: 0.485

CGACATGTCCCGCTTCTTTCATTAATCCGTTACCAACTGTTTTGCTATACACATTTACCTTTTAAGAGGAGGAAT
cleaved RNA product abundance [3]: 0.212

CGACATGTCCCGCTTCTTTCATTAATCCGTTAGCAACTGTTTTGTTATATACATTTACCCTTTAAGAGGAGGAAT
cleaved RNA product abundance [3]: 0.388

ACAGACGAAGGAGCCGAAAAGAAGTTATTAAGGGATGAATAATCCCTCAATATAAATATCTCTCACTTATTTAAA
cleaved RNA product abundance [4]: 0.794

ACAGACGAAGGAGCCGCAAAGAAGTTATTAAGGGATTAATAATCCCTCAACATAAATATCTCTCACTTATTTAAA
cleaved RNA product abundance [2]: 0.444

ACAGACGAAGGAGCCGCAAAGAAATTGTTAAGGGATGAATAATCCCTCAATATAAATATCTCTCACTTATTTAAA
cleaved RNA product abundance [1]: 0.377

ACAGACGAAGGAGCCGCATAGAAGTTATCAAGGGATGAATAATCCCTCAATATAAATATCTCTCACTTATTTAAA
cleaved RNA product abundance [2]: 0.549

CGACATGTCCCGCTTCTTTCATTAATCCGTTAGCAACTGTTTTGCTAGATACATTTACATTTTAAGAGGAGGAAT
cleaved RNA product abundance [3]: 0.424

ACAGACGAAGGAGCCGCAAAGAGGTTATTAAGGGATGAATAATCCCTCAATATAAATATCTCTCACTTATTTAAA
cleaved RNA product abundance [1]: 0.814 | cleaved RNA product abundance [2]: 0.754 | cleaved RNA product abundance [4]: 0.737

ACAGACGAAGGAGCCGCTAAGATGTTATTAAGGGATGAATAATCCCTCAATATAAATATCTCTCACTTATTTAAA
cleaved RNA product abundance [2]: 1.18

ACAGACGAAGGAGCCGCAAAGAAGTTATTAATGGATGAATAATGCCTCAATATAAATATCTCTCACTTATTTAAA
cleaved RNA product abundance [1]: 0.0612 | cleaved RNA product abundance [2]: 0.105

ACAGACGAAGGAGCCGCTAAGAAGTTATTAAAGGATGAATAATCCCTCAATATAAATATCTCTCACTTATTTAAA
cleaved RNA product abundance [2]: 0.157

CGACATGTCCCGCTTCTTTCATTAATCCGTTAGCATCTGTTTTGCTATATACATATACCTTTTAAGAGGAGGAAT
cleaved RNA product abundance [3]: 0.727

CGACATGTCCCGCTTCTTTCATTAATCCGTTAGCAACTGTTTTCCTATATACATTTACCTTTTAAGAGGAGGAAT
cleaved RNA product abundance [3]: 0.539

ACAGACGAAGGAGCCGCAAAGAAGTTATTAAGGGATGAATGATCCATCAATATAAATATCTCTCACTTATTTAAA
cleaved RNA product abundance [2]: 0.259

ACAGACGAAGGAGCCGCAAAGAAGTTATTAAGGGGATGAATAATCCCTCAATATAAATATCTCTCACTTATTTAA
cleaved RNA product abundance [2]: 0.237

ACAGACGAAGGAGCCGCAAAGAAGTTATTAAGGGATGAATAATTTCTCAATATAAATATCTCTCACTTATTTAAA
cleaved RNA product abundance [2]: 0.16

ACAGACGAAGGAGCCGCAAAGAAGTTATTAAGGGATGAATATCCCCTCAATATAAATATCTCTCACTTATTTAAA
cleaved RNA product abundance [2]: 0.455

ACAGACGAAGGAGCCGCAAAGAAGTTATTAAGGGAAGAATAATACCTCAATATAAATATCTCTCACTTATTTAAA
cleaved RNA product abundance [1]: 0.101 | cleaved RNA product abundance [2]: 0.156

ACAGACGAAGGAGCCGCAAAGAAATTATTAATGAATGAATAATCCCTCAATATAAATATCTCTCACTTATTTAAA
cleaved RNA product abundance [2]: 0.152

ACAGACGAAGGAGCCGCAAAGAAGTTATTAAGGGATGAATAATCACTCAATATAATTATCTCTCACTTATTTAAA
cleaved RNA product abundance [2]: 0.0768

— the supplement of paper PMC11780869
